Source: paper PMC5031558, “SPATA2 Links CYLD to LUBAC, Activates CYLD, and Controls LUBAC Signaling” (Molecular Cell, 2016)
Each block holds one binder with its values, some of them ahead of it.

B2: CYLD USP domain (aa 583–956) (domain or fragment, human, UniProt Q9NQC7 583-956, looked up)
chain: GLEIMIGKKKGIQGHYNSCYLDSTLFCLFAFSSVLDTVLLRPKEKNDVEYYSETQELLRTEIVNPLRIYGYVCATKIMKLRKILEKVEAASGFTSEEKDPEEFLNILFHHILRVEPLLKIRSAGQKVQDCYFYQIFMEKNEKVGVPTIQQLLEWSFINSNLKFAEAPSCLIIQMPRFGKDFKLFKKIFPSLELNITDLLEDTPRQCRICGGLAMYECRECYDDPDISAGKIKQFCKTCNTQVHLHPKRLNHKYNPVSLPKDLPDWDWRHGCIPCQNMELFAVLCIETSHYVAFVKYGKDDSAWLFFDSMADRDGGQNGFNIPQVTPCPEVGEYLKMSLEDLHSLDSRRIQGCARRLLCDAYMCMYQSPTMSLYK
notes: Dimer by SEC-MALS (86 kDa); also called intact CYLD USP domain; source: Sf9 insect cells, purified (as described in Komander et al., 2008)
B3: SPATA2 PUB domain (aa 1–241) (domain or fragment, UniProt Q9UM82 1-241, looked up)
chain: MGKPSSMDTKFKDDLFRKYVQFHESKVDTTTSRQRPGSDECLRVAASTLLSLHKVDPFYRFRLIQFYEVVESSLRSLSSSSLRALHGAFSMLETVGINLFLYPWKKEFRSIKTYTGPFVYYVKSTLLEEDIRAILSCMGYTPELGTAYKLRELVETLQVKMVSFELFLAKVECEQMLEIHSQVKDKGYSELDIVSERKSSAEDVRGCSDALRRRAEGREHLTASMSRVALQKSASERAAKD
notes: Spermatogenesis-associated protein 2 (SPATA2), PUB domain, residues 1-241, 27.6 kDa as printed; Monomer by SEC-MALS; also called SPATA2 PUB domain (1–241); source: E. coli, purified (as described in Elliott et al., 2014)
B4: CYLD USP domain I790D (domain or fragment, human)
chain: GLEIMIGKKKGIQGHYNSCYLDSTLFCLFAFSSVLDTVLLRPKEKNDVEYYSETQELLRTEIVNPLRIYGYVCATKIMKLRKILEKVEAASGFTSEEKDPEEFLNILFHHILRVEPLLKIRSAGQKVQDCYFYQIFMEKNEKVGVPTIQQLLEWSFINSNLKFAEAPSCLIIQMPRFGKDFKLFKKIFPSLELNITDLLEDTPRQCRDCGGLAMYECRECYDDPDISAGKIKQFCKTCNTQVHLHPKRLNHKYNPVSLPKDLPDWDWRHGCIPCQNMELFAVLCIETSHYVAFVKYGKDDSAWLFFDSMADRDGGQNGFNIPQVTPCPEVGEYLKMSLEDLHSLDSRRIQGCARRLLCDAYMCMYQSPTMSLYK
notes: CYLD, human, USP domain with I790D, 44 kDa observed; Monomer by SEC-MALS; Limits of the mutant are not restated; parent is m1; also called CYLD I790D; I790D dimerization mutant; source: Sf9 insect cells, purified (as described in Komander et al., 2008)
B6: SPATA2 (aa 7–356) (domain or fragment, UniProt Q9UM82 7-356, looked up)
chain: MDTKFKDDLFRKYVQFHESKVDTTTSRQRPGSDECLRVAASTLLSLHKVDPFYRFRLIQFYEVVESSLRSLSSSSLRALHGAFSMLETVGINLFLYPWKKEFRSIKTYTGPFVYYVKSTLLEEDIRAILSCMGYTPELGTAYKLRELVETLQVKMVSFELFLAKVECEQMLEIHSQVKDKGYSELDIVSERKSSAEDVRGCSDALRRRAEGREHLTASMSRVALQKSASERAAKDYYKPRVTKPSRSVDAYDSYWESRKPPLKASLSLRKEPVATDVGDDLKDEIIRPSPSLLTMASSPHGSPDVLPPASPSNGPALLRGTYFSTQDDVDLYTDSEPRATYRRQDALRPD
notes: also called extended SPATA2 fragment; source: E. coli, purified (as described in Elliott et al., 2014)

What was measured:
[1] = target: T1, HOIP PUB domain (HOIP 5–180, crystal structure) (UniProt Q96EP0 5-180); assay: crystal structure; HOIP PUB domain with SPATA2 PIM peptide (aa 334–344), 2.7 Å, space group P43, two complexes in the asymmetric unit; conditions: both partners purified
T1 construct: 5–180 may be the modelled residues of the 1–184 construct; source: E. coli, purified (as described in Elliott et al., 2014)
T1 sequence (looked up): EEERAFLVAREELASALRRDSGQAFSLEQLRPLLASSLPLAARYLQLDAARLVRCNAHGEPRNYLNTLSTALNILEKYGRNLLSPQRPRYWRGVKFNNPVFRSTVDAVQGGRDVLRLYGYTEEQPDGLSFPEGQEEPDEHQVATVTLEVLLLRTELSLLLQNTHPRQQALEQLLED

[2] = target: B3; assay: cell-based or functional assay
[3] = target: B3; assay: SEC-MALS; Superdex 75 size-exclusion column; CYLD and SPATA2 PUB variants alone and mixed; conditions: both partners purified
[4] = target: the molecule itself; assay: as above
SPATA2 (aa 7–356) = target: B6; assay: SEC-MALS; Superdex 200 column; purified SPATA2 (aa 7–356), HOIP PUB (aa 1–184) and CYLD alone and mixed; conditions: both partners purified
[5] = target: B2; assay: SPR; fraction of CYLD variant bound to SPATA2 PUB against varying CYLD concentrations; kinetic and equilibrium fits; conditions: both partners purified
CYLD USP domain I790D = target: B4; assay: as above; conditions: both partners purified
[6] = target: T2, HOIP PUB domain (aa 1–184) (UniProt Q96EP0 1-184); assay: SEC-MALS; Superdex 200 column; purified SPATA2 (aa 7–356), HOIP PUB (aa 1–184) and CYLD alone and mixed; conditions: both partners purified
T2 construct: HOIP (RNF31), PUB domain, residues 1-184; The construct used in the pull-down, NMR and FP experiments is called only 'HOIP PUB domain'; also called HOIP PUB domain (1–184); source: E. coli, purified (as described in Elliott et al., 2014)
T2 sequence (looked up): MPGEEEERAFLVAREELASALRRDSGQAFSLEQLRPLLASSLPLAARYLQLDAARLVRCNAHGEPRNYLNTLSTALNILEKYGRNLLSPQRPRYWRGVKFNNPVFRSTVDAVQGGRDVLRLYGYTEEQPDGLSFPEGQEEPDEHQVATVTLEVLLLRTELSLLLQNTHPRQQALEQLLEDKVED

binding result [1]: binds
B1: SPATA2 PIM peptide (aa 334–344) (peptide, UniProt Q9UM82 334-344, looked up)
peptide: DVDLYTDSEPR
notes: SPATA2, peptide spanning the PIM (Asp-Leu-Tyr-Thr, residues 336-339), residues 334-344; also called SPATA2 334–344

Binder: B2
kcat/KM of CYLD for fluorescent Met1/Lys63-linked diUb substrates, with against without SPATA2 [2]: ~2 fold
stoichiometry N [3]: 1 CYLD USP per SPATA2 PUB (2:2)
stoichiometry N [4]: 2
stoichiometry N (SPATA2 (aa 7–356)): 1 CYLD per SPATA2 (2:2:2 with HOIP PUB)

Binder: B3
Kd [5]: 96 nM
Kd (CYLD USP domain I790D): 518 nM

Binder: B4
stoichiometry N [3]: 1 CYLD USP I790D per SPATA2 PUB (1:1)

B5: CYLD B-box domain (aa 778–855) (domain or fragment, human, UniProt Q9NQC7 778-855, looked up)
chain: TDLLEDTPRQCRICGGLAMYECRECYDDPDISAGKIKQFCKTCNTQVHLHPKRLNHKYNPVSLPKDLPDWDWRHGCIP
modifications: 15N-labelled in the NMR titration
notes: CYLD, human, B-box domain, residues 778-855, 9.1 kDa as printed; Dimer by SEC-MALS (17.1 kDa); also called isolated B-box domain
stoichiometry N [4]: 2

Binder: B6
stoichiometry N [6]: 1 SPATA2 per HOIP PUB (1:1)
